Reference: patent US7067474B1, “Agents for treating human illnesses based on β-catenin, and the production and use thereof” (Max-Delbruck-Centrum fur Molekulare Medizin, priority 1998, dated 2006)
Counter-ions that a name gives are not always drawn. Where no end group is shown, it is not given here.

Legend:
Assay type in all cases: binding
[1] = target: T1, LEF-1/β-catenin interaction (Homo sapiens, UniProt P35222); experiment: ELISA: inhibition of complex formation of LEF-1 and β-catenin; settings: for inhibition of the interaction between LEF-1 and β-catenin (complex formation): synthetic peptides, 100 μM to 0.3 μM
T1 construct: made in house; host or cells: bacteria
T1 sequence (P35222 1-781): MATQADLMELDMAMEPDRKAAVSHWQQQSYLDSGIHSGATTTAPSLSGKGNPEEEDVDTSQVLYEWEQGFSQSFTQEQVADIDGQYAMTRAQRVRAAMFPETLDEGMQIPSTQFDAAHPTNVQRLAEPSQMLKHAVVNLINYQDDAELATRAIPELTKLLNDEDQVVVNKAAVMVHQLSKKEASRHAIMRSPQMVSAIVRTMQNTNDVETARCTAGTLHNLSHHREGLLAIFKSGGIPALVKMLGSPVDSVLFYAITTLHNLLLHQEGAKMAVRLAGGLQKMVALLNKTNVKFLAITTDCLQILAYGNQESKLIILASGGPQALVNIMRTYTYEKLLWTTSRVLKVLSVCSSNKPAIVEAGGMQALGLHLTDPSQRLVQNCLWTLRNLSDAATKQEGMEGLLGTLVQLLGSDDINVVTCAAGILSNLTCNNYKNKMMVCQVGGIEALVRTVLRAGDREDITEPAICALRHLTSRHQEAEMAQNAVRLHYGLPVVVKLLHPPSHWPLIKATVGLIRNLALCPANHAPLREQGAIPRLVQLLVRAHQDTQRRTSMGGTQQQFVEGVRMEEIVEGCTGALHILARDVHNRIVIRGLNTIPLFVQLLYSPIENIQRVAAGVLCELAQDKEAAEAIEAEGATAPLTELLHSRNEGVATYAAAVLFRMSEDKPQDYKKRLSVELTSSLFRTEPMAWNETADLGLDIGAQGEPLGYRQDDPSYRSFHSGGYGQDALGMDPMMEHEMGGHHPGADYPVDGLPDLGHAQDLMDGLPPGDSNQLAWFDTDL
Text: Both proteins were produced in bacteria recombinantly with N-terminal histidine sequences, purified by means of nickel chromatography for quantifying the inhibition of the LEF-1/β-catenin interaction by synthetic peptides and (Behrens et al. 1996). The peptides were produced by the company Biosyntan with the aid of a PSSM-8 automaton (Shimadzu, Japan) applying the Fmoc/But strategy (E. Atherton and R. C. Sheppard. 1989 IRL Press. Oxford: “Solid phase peptide synthesis—a practical approach”). Approx. 50 ng of LFF-1 were absorbed in the wells of ELISA plates for 90 minutes at room temperature. Subsequently, the wells were covered with 5% dry milk powder in PBS for 16 hours at 4° C. All further steps were carried out at room temperature in PBS with 50 mM Tris HCl (pH 7.5). After washing the wells with PBS the peptide dilutions were added. The incubation with 50–100 ng of β-catenin was carried out for 10 minutes in the presence of […] BSA. The complex formation of LEF-1 and β-catenin was detected by the antibody PA2 against the carboxy terminal area of β-catenin (Huelsken et al. 1994). PA2 was added in a standard dilution of 1:5000 in 3% of dry milk powder in PBS for 10 minutes. After washing the wells with PBS a quantification was carried out by detection antibodies conjugated by peroxidase (1: 2500 in 3% of dry milk powder in PBS, Dianova) and the conversion of o-phenylenediamine was determined by photometric measurement at […]. The peptides were used in concentrations of 100 μM to 0.3 μM. To check the specificity of the inhibition of the LEF-1/β-catenin interaction β-catenin was absorbed in the wells and detected by means of the same antibodies in the presence and absence of the peptides (FIGS. 2 and 3).
For a mutation analysis of the peptides the indicated amino acids were substituted by alanine during the synthesis. The inhibition of the complex formation of β-catenin and LEF-1 was quantified as has been already described (FIG. 2).

[2] = target: T2, LEF-1 (Mus musculus, UniProt P27782); experiment: yeast 2-hybrid: interaction of β-catenin mutants with LEF-1
T2 construct: the cDNA of LEF-1 for the amino acids 1–99; expressed in transfected cells; host or cells: yeast (two-hybrid, Matchmaker, Clontech)
T2 sequence (P27782 1-99): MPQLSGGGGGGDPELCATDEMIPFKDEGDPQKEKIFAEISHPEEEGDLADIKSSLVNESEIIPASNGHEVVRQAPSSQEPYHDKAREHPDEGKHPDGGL
Protocol: (§1) The mutagenesis of β-catenin in the armadillo repeats 3–8 was carried out by means of the “mutagenesis kit” of the company Clontech according to the producer's record and the mutants were checked by sequencing (FIG. 5). In all mutants the original amino acid was substituted by alanine. For analyzing the interactions the cDNA of human β-catenin (armadillo repeat 3 up to the C-terminal end of the protein) coding for the amino acids Leu218–Leu7 μl or its mutants was cloned into the fusion vector for the activation domain of Gal-4 (pGAD424, Clontech). The cDNA for the binding domains of the interaction partners was cloned into the Lex-A fusion vector BTM 116. To this end, the cDNA of LEF-1 for the amino acids 1–99, conductin for the amino acids Ala342–ARG465; of human APC for the amino acids His1012–Glu1215 (APC 15 amino acid repeats) and for the amino acids Ser1259Asp 1400 (APC 20 amino acid repeats) and E-cadherin for the amino acids Gin773–Asp884 (cytoplasmatic domain) were amplified with the respective primers PCR. The interaction of the Lex-A hybrids with β-catenin and its mutants was quantified by means of the β-galactosidase reporter activity in the yeast 2-hybrid system (report: “Matchmaker”. Clontech) (Tab. 2 and FIG. 6).

[3] = target: T3, E-cadherin (Mus musculus, UniProt P09803); experiment: yeast 2-hybrid: interaction of β-catenin mutants with E-cadherin; settings: alanine mutants
T3 construct: E-cadherin for the amino acids Gin773–Asp884 (cytoplasmatic domain); expressed in transfected cells; host or cells: yeast (two-hybrid, Matchmaker, Clontech)
T3 sequence (P09803 773-884): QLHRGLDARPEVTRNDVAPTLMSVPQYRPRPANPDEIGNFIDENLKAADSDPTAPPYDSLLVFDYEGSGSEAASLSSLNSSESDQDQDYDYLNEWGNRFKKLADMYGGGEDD
Protocol: as §1

[4] = target: T4, APC (15 amino acid repeats) (Homo sapiens, UniProt P25054); experiment: yeast 2-hybrid: interaction of β-catenin mutants with APC 15 amino acid repeats; settings: for Interaction With APC-15, share of wild type β-catenin interaction: yeast 2-hybrid, alanine mutants
T4 construct: of human APC for the amino acids His1012–Glu1215 (APC 15 amino acid repeats); expressed in transfected cells; host or cells: yeast (two-hybrid, Matchmaker, Clontech)
T4 sequence (P25054 1006-1209 limits assumed): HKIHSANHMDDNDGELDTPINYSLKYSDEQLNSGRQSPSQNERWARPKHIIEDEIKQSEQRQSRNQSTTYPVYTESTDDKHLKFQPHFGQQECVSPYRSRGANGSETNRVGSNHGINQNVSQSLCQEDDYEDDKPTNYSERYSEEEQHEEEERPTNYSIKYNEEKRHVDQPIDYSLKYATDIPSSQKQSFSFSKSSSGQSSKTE
Protocol: as §1

[5] = target: T5, conductin (Mus musculus, UniProt O88566); experiment: yeast 2-hybrid: interaction of β-catenin mutants with conductin; settings: yeast 2-hybrid, alanine mutants
T5 construct: conductin for the amino acids Ala342–ARG465; expressed in transfected cells; host or cells: yeast (two-hybrid, Matchmaker, Clontech)
T5 sequence (O88566 343-465 limits assumed): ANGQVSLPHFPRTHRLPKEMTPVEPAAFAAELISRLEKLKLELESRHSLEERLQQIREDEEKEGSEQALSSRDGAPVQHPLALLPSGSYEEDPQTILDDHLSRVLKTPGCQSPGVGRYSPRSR
Protocol: as §1

[6] = target: T6, APC (20 amino acid repeats) (Homo sapiens, UniProt P25054); experiment: yeast 2-hybrid: interaction of β-catenin mutants with APC 20 amino acid repeats; settings: yeast 2-hybrid, alanine mutants
T6 construct: for the amino acids Ser1259Asp 1400 (APC 20 amino acid repeats); expressed in transfected cells; host or cells: yeast (two-hybrid, Matchmaker, Clontech)
T6 sequence (P25054 1253-1394 limits assumed): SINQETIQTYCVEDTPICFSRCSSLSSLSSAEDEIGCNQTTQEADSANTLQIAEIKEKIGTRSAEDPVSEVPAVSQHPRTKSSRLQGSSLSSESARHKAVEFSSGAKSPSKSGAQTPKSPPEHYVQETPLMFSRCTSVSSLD
Protocol: as §1

With “Ile35–Val56: peptide of LEF-1 with the amino acids Ile35–Val56 (IFAEISHPEEEGDLADIKSSLV)” the “inhibition of the interaction between LEF-1 and β-catenin (complex formation)” value (“inhibition” below) [1] was “does not inhibit complex formation”.

In the case of “Asp22: synthetic hTCF-4 N-terminal peptide with Asp22 substituted by alanine (GGDDLGANDELISFKAEGEQEEK)”, the “inhibition” value [1] is reported as “stopping the inhibition”.

In the case of “Asp15: synthetic hTCF-4 N-terminal peptide with Asp15 substituted by alanine (GGDDLGANAELISFKDEGEQEEK)”, the “inhibition” value [1] is reported as “stopping the inhibition”.

In the case of “Lys21: synthetic hTCF-4 N-terminal peptide with Lys21 substituted (GGDDLGANDELISFADEGEQEEK)”, the “inhibition” value [1] is reported as “has the same effect”.

“Asp10: synthetic hTCF-4 N-terminal peptide with Asp10 substituted by alanine (GGDALGANDELISFKDEGEQEEK)” was tested, and the “inhibition” value [1] was “stopping the inhibition”.

In the case of “Phe20: synthetic hTCF-4 N-terminal peptide with Phe20 substituted (GGDDLGANDELISAKDEGEQEEK)”, the “inhibition” value [1] is reported as “has the same effect”.

In the case of Cn1nnnc1SCC1=C(C(=O)O)N2C(=O)C(NC(=O)[C@@H](O)c3ccccc3)C2SC1 (stereo partly shown) [cefamandole, CEFAMANDOLESODIUM SALT, reference compound], the IC50 ([1]; recombinant purified proteins, 15–250 μM, FIG. 9, read-out: IC50, reduction of the complex formation of LEF-1 and β-catenin) is reported as 25 µM.

For GDPELCATDEMIPFKDEGDPQKEK [11–34], the “inhibition” value [1] was “inhibit specifically”.

ELCATDEMIPFKDE [14–27] was tested, and the “inhibition” value [1] was “inhibit specifically”.

B1: Lys 435: human β-catenin mutant, Lys 435 substituted by alanine (arm 8) (protein)
chain: LHNLSHHREGLLAIFKSGGIPALVKMLGSPVDSVLFYAITTLHNLLLHQEGAKMAVRLAGGLQKMVALLNKTNVKFLAITTDCLQILAYGNQESKLIILASGGPQALVNIMRTYTYEKLLWTTSRVLKVLSVCSSNKPAIVEAGGMQALGLHLTDPSQRLVQNCLWTLRNLSDAATKQEGMEGLLGTLVQLLGSDDINVVTCAAGILSNLTCNNYKNAMMVCQVGGIEALVRTVLRAGDREDITEPAICALRHLTSRHQEAEMAQNAVRLHYGLPVVVKLLHPPSHWPLIKATVGLIRNLALCPANHAPLREQGAIPRLVQLLVRAHQDTQRRTSMGGTQQQFVEGVRMEEIVEGCTGALHILARDVHNRIVIRGLNTIPLFVQLLYSPIENIQRVAAGVLCELAQDKEAAEAIEAEGATAPLTELLHSRNEGVATYAAAVLFRMSEDKPQDYKKRLSVELTSSLFRTEPMAWNETADLGLDIGAQGEPLGYRQDDPSYRSFHSGGYGQDALGMDPMMEHEMGGHHPGADYPVDGLPDLGHAQDLMDGLPPGDSNQLAWFDTDL
modifications: left off: large carriers; small tags and cut ends
For B1, the “Interaction With LEF-1, share of wild type β-catenin interaction” value ([2]; yeast 2-hybrid, alanine mutants) was “— (Interactions marked by — correspond to 60–100% of the wild type interaction)”, the “interaction with LEF-1/TCF-4” value ([2]; β-catenin mutation, in words) was “blocking the interaction” and the “Interaction With E-Cadherin, share of wild type β-catenin interaction” value [3] was “— (Interactions marked by — correspond to 60–100% of the wild type interaction)”. For the same molecule, the “Interaction With APC-15, share of wild type β-catenin interaction” value [4] was 30%, the “Interaction With Conductin, share of wild type β-catenin interaction” value [5] was 42% and the “Interaction With APC-20, share of wild type β-catenin interaction” value [6] was “— (Interactions marked by — correspond to 60–100% of the wild type interaction)”.

B2: Arg 386: human β-catenin mutant, Arg 386 substituted by alanine (arm 6) (protein)
chain: LHNLSHHREGLLAIFKSGGIPALVKMLGSPVDSVLFYAITTLHNLLLHQEGAKMAVRLAGGLQKMVALLNKTNVKFLAITTDCLQILAYGNQESKLIILASGGPQALVNIMRTYTYEKLLWTTSRVLKVLSVCSSNKPAIVEAGGMQALGLHLTDPSQRLVQNCLWTLANLSDAATKQEGMEGLLGTLVQLLGSDDINVVTCAAGILSNLTCNNYKNKMMVCQVGGIEALVRTVLRAGDREDITEPAICALRHLTSRHQEAEMAQNAVRLHYGLPVVVKLLHPPSHWPLIKATVGLIRNLALCPANHAPLREQGAIPRLVQLLVRAHQDTQRRTSMGGTQQQFVEGVRMEEIVEGCTGALHILARDVHNRIVIRGLNTIPLFVQLLYSPIENIQRVAAGVLCELAQDKEAAEAIEAEGATAPLTELLHSRNEGVATYAAAVLFRMSEDKPQDYKKRLSVELTSSLFRTEPMAWNETADLGLDIGAQGEPLGYRQDDPSYRSFHSGGYGQDALGMDPMMEHEMGGHHPGADYPVDGLPDLGHAQDLMDGLPPGDSNQLAWFDTDL
modifications: left off: large carriers; small tags and cut ends
For B2, the “Interaction With E-Cadherin, share of wild type β-catenin interaction” value [3] was “— (Interactions marked by — correspond to 60–100% of the wild type interaction)”, the “Interaction With APC-15, share of wild type β-catenin interaction” value [4] was 12% and the “interaction with APC 15aa” value ([4]; β-catenin mutation, in words) was “no interaction with APC 15aa”. For the same molecule, the “Interaction With Conductin, share of wild type β-catenin interaction” value [5] was 45%.
